This note sets out measurements from patent US7238663B2, “Pre-mixes of GLP-1 and basal insulin” (Eli Lilly and Company, priority 2001, dated 2007).

Where “and” joins values, the source holds several entries; their conditions need not be identical. Equal values may be shown once.

T1 sequence (P43220 24-463): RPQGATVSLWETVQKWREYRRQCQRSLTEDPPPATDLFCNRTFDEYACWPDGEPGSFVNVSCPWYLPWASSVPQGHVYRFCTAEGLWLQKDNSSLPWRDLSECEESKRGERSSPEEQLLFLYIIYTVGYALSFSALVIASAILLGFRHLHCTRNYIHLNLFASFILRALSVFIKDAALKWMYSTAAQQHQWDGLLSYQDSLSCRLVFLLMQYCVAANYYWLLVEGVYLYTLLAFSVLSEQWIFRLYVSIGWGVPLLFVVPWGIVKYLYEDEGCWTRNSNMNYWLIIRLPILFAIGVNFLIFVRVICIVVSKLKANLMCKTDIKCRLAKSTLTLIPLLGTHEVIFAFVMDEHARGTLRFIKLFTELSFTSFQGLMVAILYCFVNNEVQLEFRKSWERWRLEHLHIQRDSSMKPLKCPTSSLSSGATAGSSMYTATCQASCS

The first data set concerns the target T1, human GLP-1 receptor (Homo sapiens, UniProt P43220).
T1 construct: expressed in transfected cells; host or cells: HEK-293 Aurora CRE-BLAM cells
The experiment in a line: GLP-1 receptor activation (in vitro potency, CRE-BLAM fluorescence assay). The following applies: relative in vitro potency from EC50, HEK-293 Aurora CRE-BLAM cells; Val^8-GLP-1(7-37)OH control = 1. It is filed as cell-based. The text has this: These HEK-293 cells have stably integrated a DNA vector having a cAmp response element (CRE) driving expression of the β-lactamase (BLAM) gene. […] The assay is further described in Zlokarnik, et al., (1998) Science 279:84-88 (See also Example 1).
On to “Val^8-Cys^16-Lys^26-Arg^34-GLP-1(7-37)OH”, for which the “GLP-1 receptor activation relative to Val^8-GLP-1(7-37)OH” value is 2.4 and 1.9.

Take Val^8-Cys^16-Lys^26-GLP-1(7-37)OH: the “GLP-1 receptor activation relative to Val^8-GLP-1(7-37)OH” value was 4.2.

As for “Val^8-Glu^22-Ile^33-GLP-1(7-37)OH (HVEGTFTSDVSSYLEEQAAKEFIAWLIKGRG)”, the “GLP-1 receptor activation relative to Val^8-GLP-1(7-37)OH” value was 4.7 and 3.8 and 3.4.

With “Val^8-Glu^22-Val^25-GLP-1(7-37)OH (HVEGTFTSDVSSYLEEQAVKEFIAWLVKGRG)”, the “GLP-1 receptor activation relative to Val^8-GLP-1(7-37)OH” value was 4.7 and 2.9.

For the substance “Val^8-Glu^22-Val^25-Ile^33-GLP-1(7-37)OH (HVEGTFTSDVSSYLEEQAVKEFIAWLIKGRG)”, the “GLP-1 receptor activation relative to Val^8-GLP-1(7-37)OH” value was 4.9 and 5.8 and 6.7.

Take “Val^8-Trp^16-Glu^22-GLP-1(7-37)OH (HVEGTFTSDWSSYLEEQAAKEFIAWLVKGRG)”: the “GLP-1 receptor activation relative to Val^8-GLP-1(7-37)OH” value was 4.9 and 4.6.

Regarding “Val^8-Tyr^16-Glu^22-GLP-1(7-37)OH (HVEGTFTSDYSSYLEEQAAKEFIAWLVKGRG)”, the “GLP-1 receptor activation relative to Val^8-GLP-1(7-37)OH” value was 3.6 and 3.8.

On to “Val^8-Tyr^18-Glu^22-GLP-1(7-37)OH (HVEGTFTSDVSYYLEEQAAKEFIAWLVKGRG)”, for which the “GLP-1 receptor activation relative to Val^8-GLP-1(7-37)OH” value was 5.1 and 5.9.

For Val^8-Val^16-GLP-1(7-37)OH, the “GLP-1 receptor activation relative to Val^8-GLP-1(7-37)OH” value amounted to 1.1.

System in a further data set: not listed separately
The experiment in a line: GLP aggregation assay (turbidity at 350 nm). The class given is physicochemical. The following applies: compared to GLP-1(7-37)OH or Val^8-GLP-1(7-37)OH. As to the method: GLP peptides can be analyzed with respect to their potential to aggregate in solution.
In general, peptides in solution are stirred at elevated temperature in a suitable buffer while recording turbidity at 350 nm as a function of time. Time to the onset of aggregation is measured to quantify the potential of a given GLP molecule to aggregate under these stressed conditions.
A GLP-1 compound is first dissolved under alkaline conditions (pH 10.5) for 30 minutes to dissolve any pre-aggregated material. The solution is then adjusted to pH 7.4 and filtered. Specifically, 4 mg of a lyophilized GLP-1 compound is dissolved in 3 ml of 10 mM phosphate/10 mM citrate. The pH is adjusted to 10.0-10.5 and held for 30 minutes. The solution is adjusted with HCl to pH 7.4 and filtered through a suitable filter, for example a Millex GV syringe filter (Millipore Corporation, Bedford, Mass.). This solution is then diluted to a final sample containing 0.3 mg/mL protein in 10 mM citrate, 10 mM phosphate, 150 mM NaCl, and adjusted to pH 7.4 to 7.5. The sample is incubated at 37° C. in a quartz cuvette. Every five minutes the turbidity of the solution is measured at 350 nm on an AVIV Model 14DS UV-VIS spectrophotometer (Lakewood, N.J.). For 30 seconds prior to and during the measurement the solution is stirred using a magnetic stir bar from Stama Cells, Inc. (Atascadero, Calif.). An increase in OD at 350 nm indicates aggregation of the GLP-peptide. The time to aggregation is approximated by the intersection of linear fits to the pre-growth and growth phase according to method of Drake(Arvinte T, Cudd A, and Drake A F.(1993) J. Bio. Chem. 268, 6415-6422).
The cuvette is cleaned between experiments with a caustic soap solution (e.g., Contrad-70).
The results for a number of GLP-1 compounds are reported in Table 8 as the time in hours required for the compound to aggregate.
Regarding “Val^8-Glu^22-GLP-1(7-37)OH (HVEGTFTSDVSSYLEEQAAKEFIAWLVKGRG)”, the “propensity to aggregate in solution” value is reported as “markedly decreased propensity to aggregate”.

Consider “Val^8-Glu^30-GLP-1(7-37)OH (HVEGTFTSDVSSYLEGQAAKEFIEWLVKGRG)”, for which the “propensity to aggregate in solution” value is on record as “markedly decreased propensity to aggregate”.

Regarding “Val^8-His^37-GLP-1(7-37)OH (HVEGTFTSDVSSYLEGQAAKEFIAWLVKGRH)”, the “propensity to aggregate in solution” value is on record as “markedly decreased propensity to aggregate”.

System in the next data set: not listed separately
Put plainly: GLP-1 compound/soluble basal insulin mixtures: clarity and final concentrations by HPLC. It is filed as physicochemical. Particulars: 2.1 mg in 1 ml 0.01 N HCl, pH 11.3 then adjusted to 4.0. As to the method: Exendin-4 (160 μg) was dissolved in 100 μL of commercial Lantus® insulin ([…], 3.6378 mg/mL). […] The solution was stored at 5° C. […] The pH was 4.0 Final concentrations of Exendin-4 and Lantus® were determined by reverse phase HPLC to be 0.9 mg/mL Exendin-4 and 3.5 mg/mL Lantus®. Based on known concentrations of excipients in the commercial formulation of Lantus®, the final concentrations of excipients in the mixture were as follows: 2.7 mg/mL m-cresol, 30 μg/mL zinc, and 17 mg/ml glycerol.
Exendin-4 (290 μg) was dissolved in 100 μL of commercial Lantus® insulin U100, 3.6378 mg/mL). […] The pH of the solution was adjusted to 4.0 with NaOH. Final concentrations of Exendin-4 and Lantus® were determined by reverse phase HPLC to be 1.6 mg/mL Exendin-4 and 3.5 mg/mL Lantus®. […]
Exendin-4 (529 μg) was dissolved in 500 μL of commercial Lantus® insulin (U100, 3.6378 mg/mL). […] Final concentrations of Exendin-4 and Lantus® were calculated to be 1 mg/mL Exendin-4 and 3.5 mg/mL Lantus®. […]
A stock solution of Val^8-Glu^22-GLP-1(7-37)OH was prepared by dissolving 2.1 mg of Val^8-Glu^22-GLP-1(7-37)OH in 1 ml of 0.01 N HCl. […] Final concentrations of Val^8-Glu^22-GLP-1(7-37)OH and Lantus® were determined by reverse phase HPLC to be 0.5 mg/mL Val^8-Glu^22-GLP-1(7-37)OH and 2.4 mg/mL Lantus®. […]
Take “Val^8-Glu^22-GLP-1(7-37)OH (HVEGTFTSDVSSYLEEQAAKEFIAWLVKGRG)”: the “appearance of stock solution” value is “remained clear”.

The data set is the same for the next values; noted with them: 4.8 mg in 1.5 ml Stock solution A (glycerin, meta-cresol, zinc), pH 11 then adjusted to 4.0.
As for “Val^8-Glu^22-GLP-1(7-37)OH (HVEGTFTSDVSSYLEEQAAKEFIAWLVKGRG)”, the “appearance of stock solution” value is recorded as “remained clear”.
